Test results as given in publication PMC3681763 (2013).

B1: Peptide aptamer PA #103 (anti-C2 domain), purified, in the D26A, K57E Thioredoxin scaffold (designed binder)
chain: SDKIIHLTDDSFDTDVLKADGAILVAFWAEWIQLRVRMKLVKMIAPILDEIADEYQGKLTVAELNIDQNPGTAPKYGIRGIPTLLLFKNGEVAATKVGALSKGQLKEFLDANLA
B2: (VC1)RAGE-GFP (domain or fragment)
chain: AQNITARIGEPLVLKCKGAPKKPPQRLEWKLNTGRTEAWKVLSPQGGGPWDSVARVLPNGSLFLPAVGIQDEGIFRCQAMNRNGKETKSNYRVRVYQIPGKPEIVDSASELTAGVPNKVGTCVSEGSYPAGTLSWHLDGKPLVPNEKGVSVKEQTRRHPETGLFTLQSELMVTPARGGDPRPTFSCSFSPGLPRHRALRTAPIQPRVWEPVPLEEVQLVVEPEG
B3: (C2)RAGE-GFP (domain or fragment)
chain: EPVPLEEVQLVVEPEGGAVAPGGTVTLTCEVPAQPSPQIHWMKDGVPLPLPPSPVLILPEIGPQDQGTYSCVATHSSHGPQESRAVSISIIEPGEEGPTAGSVGGS

Key:
Experiment in all cases: ELISA
(C2)RAGE-GFP = target: B3
Apt#31 = target: Apt#31
Apt#48 = target: Apt#48
[1] = target: Peptide aptamer PA #27 (anti-C1 domain), purified, in the D26A, K57E Thioredoxin scaffold (E. coli, UniProt P0AA25 = thioredoxin)
[2] = target: Peptide aptamer PA #44 (anti-V domain), purified, in the D26A, K57E Thioredoxin scaffold (E. coli, UniProt P0AA25 = thioredoxin)
[3] = target: Peptide aptamer PA #71 (anti-C2 domain), purified, in the D26A, K57E Thioredoxin scaffold (E. coli, UniProt P0AA25 = thioredoxin)

Binder: B1
Kd ((C2)RAGE-GFP): 1340 nM

Binder: B2
Kd (Apt#31): 42 nM | Kd (Apt#48): 152 nM | Kd [1]: 32 nM | Kd [2]: 164 nM

Binder: B3
Kd [3]: 14.5 µM
